Source: US8889392B2, “Monolignol 4-O-methyltransferases and uses thereof” (Brookhaven Science Associates, LLC, priority 2010, dated 2014)
Numbering of substitutions follows the chain as printed. Numbers in names are those of the source. Where “and” joins values, the source holds several entries; their conditions need not be identical. Equal entries are not always repeated.

T1: horseradish peroxidase (Armoracia rusticana, UniProt P00433)
T1 sequence (P00433 31-338 limits assumed): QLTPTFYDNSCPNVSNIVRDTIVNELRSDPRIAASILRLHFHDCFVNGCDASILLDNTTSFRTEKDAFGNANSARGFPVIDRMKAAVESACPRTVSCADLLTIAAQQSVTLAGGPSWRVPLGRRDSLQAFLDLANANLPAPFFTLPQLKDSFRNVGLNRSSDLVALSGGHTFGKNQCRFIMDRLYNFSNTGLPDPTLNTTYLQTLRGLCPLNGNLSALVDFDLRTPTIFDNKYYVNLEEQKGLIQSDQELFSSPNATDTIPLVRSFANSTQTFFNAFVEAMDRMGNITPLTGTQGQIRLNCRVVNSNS

B1: T133I-E165I-F175I: IEMT triple mutant, monolignol 4-O methyltransferase-3 (protein, listed as Clarkia breweri)
chain: MGSTGNAEIQIIPTHSSDEEANLFAMQLASAAVLPMALKAAIELDVLEIMAKSVPPSGYISPAEIAAQLPTTNPEAPVMLDRVLRLLASYSVVTYTLRELPSGKVERLYGLAPVCKFLTKNEDGVSLAPFLLIATDKVLLEPWFYLKDAILEGGIPFNKAYGMNIFDYHGTDHRINKVFNKGMSSNSTITMKKILEMYNGFEGLTTIVDVGGGTGAVASMIVAKYPSINAINFDLPHVIQDAPAFSGVEHLGGDMFDGVPKGDAIFIKWICHDWSDEHCLKLLKNCYAALPDHGKVIVAEYILPPSPDPSIATKVVIHTDALMLAYNPGGKERTEKEFQALAMASGFRGFKVASCAFNTYVMEFLKTA
B2: T133I-E165I-F175I-F166W-H169F: IEMT penta mutant (MOMT5) (protein)
chain: B1 chain with F166W, H169F
B3: T133I-E165I-F175I-F166W: IEMT tetra mutant derived from MOMT3 (protein)
chain: B1 chain with F166W
B4: T133I-E165I-F175I-A325V: IEMT tetra mutant derived from MOMT3 (protein)
chain: B1 chain with A325V
B5: T133I-E165I-F175I-Y161W: IEMT tetra mutant derived from MOMT3 (protein)
chain: B1 chain with Y161W
B6: T133I-E165I-F175I-Y161F: IEMT tetra mutant derived from MOMT3 (protein)
chain: B1 chain with Y161F
B7: IEMT wt: C. breweri (iso)eugenol 4-O-methyltransferase, wild type (GenBank U86760.1, SEQ ID NO: 1) (protein, listed as Clarkia breweri)
chain: B1 chain with I133T, I165E, I175F
B8: T133L-E165F: IEMT double mutant variant (protein)
chain: B1 chain with I133L, I165F, I175F
B9: T133I-E165I-F175I-H169M: IEMT tetra mutant derived from MOMT3 (protein)
chain: B1 chain with H169M
B10: T133I-E165I-F175I-Y326F-N327V: IEMT penta mutant derived from MOMT3 (protein)
chain: B1 chain with Y326F, N327V
B11: T133I-E165I-F175I-H169F: MOMT4 tetra mutant expressed in Arabidopsis (protein)
chain: B1 chain with H169F
B12: T133I-E165I-F175I-F166W-H169W: IEMT penta mutant derived from MOMT3 (protein)
chain: B1 chain with F166W, H169W
B13: T133I-E165I-F175I-F166W-T135N: IEMT penta mutant derived from MOMT3 (protein)
chain: B1 chain with T135N, F166W
B14: T133L/L139Q/E165F: IEMT triple mutant variant (protein, listed as Clarkia breweri)
chain: B1 chain with I133L, L139Q, I165F, I175F

Tested on: not listed separately
Assay: Kinetic parameters for 4-O-methylation of coniferyl alcohol
Assay type: biochemical
Conditions: coniferyl alcohol
Procedure: E. coli transformants were inoculated in 96 well plates. Protein production was induced with 0.2 mM isopropyl β-D-1-thiogalactopyranoside, and the harvested cell cultures were lysed with 60 μl of BugBuster solution per well (Novagen). Enzymatic activity was screened using the lysates directly or after purification of the recombinant protein in a 96 well purification plate.
Screening was performed in a polypropylene microplate (Bio-Rad) containing 50 μl of the reaction in each well, 500 μM p-coniferyl-alcohol substrates, and 500 μM S-adenosyl-L-methionine augmented with (isotopic assay) or without (LC-MS assay) 0.005 μCi of [methyl-^14C]S-adenosyl-L-methionine, and 20 μl of lysates or purified protein (Ni^+ column eluate). (see Bhuiya, M. W. and Liu, C. J. (2010) J. Biol. Chem. 285:277-285 and its supplemental material).
To further optimize the catalytic efficiency of MOMT on the desired para-methylation of monolignols, based on the crystal structure of MOMT3, we identified additional amino acid residues that either directly contact or are proximate to the bound coniferyl alcohol, particularly the residues near the 3-methoxy-buried pocket. They are F130, A134, V138, L139, F157, Y161, N164, F166, Y168, H169, H173, F179, M183, N186, T319, L322, M323, A325, Y326, and N327. We then carried out the next round saturation mutagenesis on the recognized amino acid sites using MOMT3 as the parental template. […] The MOMT4 enzyme predominantly reacted with coniferyl and sinapyl alcohols, with preference for the latter, while the MOMT5 favors for coniferyl alcohol.

Row | Molecule | catalytic efficiency [M⁻¹ s⁻¹] | fold increase of catalytic efficiency compared with the wild-type enzyme
1 | B1 | 1245 | more than 70 fold
2 | B2 |  | ~200 fold
3 | B3 |  | ~200 fold

Same assay, conditions: substrate coniferyl alcohol, 4-O-methylation

Row | Molecule | Km | Vmax
4 | B1 | 279 µM and 199 µM | 556 ± 35 nmol/mg/min and 371 ± 15 nmol/mg/min
5 | B2 | 80 ± 6 µM | 440 ± 10 nmol/mg/min
6 | B4 | 236 ± 50 µM | 446 ± 33 nmol/mg/min
7 | B5 | 196 ± 34 µM | 584 ± 37 nmol/mg/min
8 | B3 | 117 ± 15 µM | 496 ± 8 nmol/mg/min
9 | B6 | 197 ± 21 µM | 642 ± 24 nmol/mg/min
10 | B7 | 1590 ± 182 µM | 42 ± 4 nmol/mg/min
11 | B8 | 280 ± 18 µM | 117 ± 3 nmol/mg/min
12 | B9 | 220 ± 27 µM | 629 ± 26 nmol/mg/min
13 | B10 | 196 ± 44 µM | 520 ± 25 nmol/mg/min
14 | B11 | 193 ± 25 µM | 793 ± 32 nmol/mg/min
15 | B12 | 127 ± 8 µM | 392 ± 9 nmol/mg/min
16 | B13 | 167 ± 11 µM | 431 ± 12 nmol/mg/min

Tested on: not listed separately
Assay: Kinetic parameters for 4-O-methylation of sinapyl alcohol
Assay type: biochemical
Conditions: sinapyl alcohol

Row | Molecule | catalytic efficiency [M⁻¹ s⁻¹] | fold increase of catalytic efficiency compared with the wild-type enzyme
17 | B1 | 1463 | more than 70 fold
18 | B2 |  | ~200 fold
19 | B3 |  | ~200 fold

Same assay, conditions: substrate sinapyl alcohol, 4-O-methylation

Row | Molecule | Km | Vmax
20 | B1 | 120 µM and 119 µM | 275 ± 10 nmol/mg/min and 260 ± 6 nmol/mg/min
21 | B2 | 37 ± 7 µM | 124 ± 7 nmol/mg/min
22 | B4 | 97 ± 7 µM | 214 ± 4 nmol/mg/min
23 | B5 | 219 ± 19 µM | 259 ± 8 nmol/mg/min
24 | B3 | 47 ± 8 µM | 147 ± 4 nmol/mg/min
25 | B6 | 206 ± 25 µM | 289 ± 12 nmol/mg/min
26 | B7 | 1500 ± 214 µM | 45 ± 4 nmol/mg/min
27 | B8 | 382 ± 32 µM | 103 ± 4 nmol/mg/min
28 | B9 | 89 ± 10 µM | 370 ± 11 nmol/mg/min
29 | B10 | 340 ± 30 µM | 429 ± 15 nmol/mg/min
30 | B11 | 68 ± 11 µM | 408 ± 17 nmol/mg/min
31 | B12 | 67 ± 10 µM | 160 ± 12 nmol/mg/min
32 | B13 | 54 ± 14 µM | 115 ± 9 nmol/mg/min

Tested on: not listed separately
Assay: Substrate specificity of mutant variants
Assay type: biochemical
Conditions: p-hydroxycinnamyl alcohols and p-hydroxycinnamaldehydes
Description: Kinetically, the mutant T133L/E165I/F175I equally preferred two major types of monolignols in angiosperms, i.e., coniferyl and sinapyl alcohols, whereas the T133L/L139Q/E165F variant favored coniferyl slightly over the sinapyl alcohol.

Row | Molecule | activity for lignin monomeric precursors
33 | B1 | high activities
34 | B7 | barely measurable
35 | B14 | high activities

Molecular target: T1, horseradish peroxidase
Assay: Peroxidase-catalyzed dehydrogenative polymerization in vitro
Assay type: biochemical
Conditions: incubation with horseradish peroxidase and H2O2
Description: In vitro dehydrogenative polymerization is commonly used as a biomimetic model to explore in vivo lignin formation. Using the novel mutant variants, we produced methylated monolignol—the 4-O-methoxy-coniferyl alcohol, and subjected it to peroxidase-catalyzed dehydrogenative polymerization, compared to the classic p-coniferyl alcohol. […] The oligomer products include a predominant dimer, the β-5 inter subunit linkage, G(8-5)G, and a few minor peaks of the G(8-O-4)G and G(8-8)G dimers.

Row | Molecule | conversion and oligomerization
36 | COc1cc(/C=C/CO)ccc1O [coniferyl alcohol, p-coniferyl alcohol] | oxidized and conjugated, yielding several oligolignols
